The results in this text go back to the supplement of paper PMC7125110.

± gives the standard error. For part of these data: Fewer inactive variants are shown than the library holds. Some results are limits rather than exact numbers.

The chains are these.
B1: glmS ribozyme (parent)
chain: AUAAAAGCGCCAGAACUACAGAAAUGUAGUUGACGAGGAGGAGGUUUAUCGAAUUUUCGGCGGAUGCCUCCAAA

Holding throughout (details): with glucosamine-6-phosphate
Variants of B1 are the subject of series [1]. The series is described as follows: kcat; higher = faster cleavage; RNA array. Summed up: (§1)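 Tiles bearing barcoded ribozyme variants, transcribed in situ by E. coli RNA polymerase on sequenced MiSeq chips, were imaged over ~14 h at 37 °C using a hybridised Cy3 probe. Glucosamine-6-phosphate was supplied at 40 μM to 10 mM in HEPES/KCl/Mg(OAc)2 buffer. kobs came from one- or two-exponential decay fits to normalised per-tile medians, and weighted Michaelis–Menten fits then provided kcat and KM.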

Series [2] covers variants of B1. The series is described as follows: self-cleavage kobs at 640 uM GlcN6P; higher = faster cleavage; RNA array. In outline:
as §1

In series [3] the parent is B1. The experiment in a line: self-cleavage kobs at 2500 uM GlcN6P; higher = faster cleavage; RNA array. Summed up:
as §1

Variants of B1 are the subject of series [4]. The series is described as follows: self-cleavage kobs at 10000 uM GlcN6P; higher = faster cleavage; RNA array. Summed up: as §1
Series [5] covers variants of B1. The experiment in a line: self-cleavage kobs at 40 uM GlcN6P; higher = faster cleavage; RNA array. Summed up: as §1
Variants of B1 are the subject of series [6]. The experiment in a line: KM; higher = weaker cofactor use; RNA array. Summed up: as §1
In series [7] the parent is B1. The series is described as follows: self-cleavage kobs at 160 uM GlcN6P; higher = faster cleavage; RNA array. In outline:
as §1

As a reminder, the kcat is the maximal rate divided by the concentration of active sites. For the variant G13C U69C, the kcat with glucosamine-6-phosphate [1] stood at 7.75e-05 ± 1.1e-05 s⁻¹. The “self-cleavage kobs at 640 uM GlcN6P” value with glucosamine-6-phosphate [2] is 7.04e-05 ± 2.6e-05 s⁻¹. Moreover, the “self-cleavage kobs at 2500 uM GlcN6P” value with glucosamine-6-phosphate [3] is 5.9e-05 ± 1.8e-05 s⁻¹. Moreover, in the series with glucosamine-6-phosphate [4], the “self-cleavage kobs at 10000 uM GlcN6P” value was 8.36e-05 ± 1.7e-05 s⁻¹.
Consider A14U G63U A64U, for which the “self-cleavage kobs at 40 uM GlcN6P” value with glucosamine-6-phosphate [5] was under 1e-05 s⁻¹.
For the variant A15C A48G U69G, the “self-cleavage kobs at 40 uM GlcN6P” value with glucosamine-6-phosphate [5] was under 1e-05 s⁻¹. Moreover, the “self-cleavage kobs at 10000 uM GlcN6P” value in the series with glucosamine-6-phosphate [4] is under 1e-05 s⁻¹.
Turning to C58A A64U, the “self-cleavage kobs at 40 uM GlcN6P” value in the series with glucosamine-6-phosphate [5] is under 1e-05 s⁻¹. Further, in the series with glucosamine-6-phosphate [3], the “self-cleavage kobs at 2500 uM GlcN6P” value is under 1e-05 s⁻¹. Also, in the series with glucosamine-6-phosphate [4], the “self-cleavage kobs at 10000 uM GlcN6P” value is under 1e-05 s⁻¹.
By KM is commonly meant the substrate concentration at which the rate is half of its maximum. In the case of G43C C68U, the kcat in the series with glucosamine-6-phosphate [1] worked out at 0.000722 ± 5.4e-05 s⁻¹. Also, the KM in the series with glucosamine-6-phosphate [6] is 1370 ± 190 µM. Besides, the “self-cleavage kobs at 160 uM GlcN6P” value in the series with glucosamine-6-phosphate [7] came to 7.12e-05 ± 1.6e-05 s⁻¹. For the same variant, in the series with glucosamine-6-phosphate [2], the “self-cleavage kobs at 640 uM GlcN6P” value was 0.000235 ± 2.8e-05 s⁻¹. In the series with glucosamine-6-phosphate [3], the “self-cleavage kobs at 2500 uM GlcN6P” value came out at 0.000572 ± 0.00012 s⁻¹. Besides, the “self-cleavage kobs at 10000 uM GlcN6P” value with glucosamine-6-phosphate [4] was 0.000615 ± 6.7e-05 s⁻¹.
For C11U G40U C70U, in the series with glucosamine-6-phosphate [1], the kcat worked out at 0.000108 ± 1.1e-06 s⁻¹. The KM in the series with glucosamine-6-phosphate [6] turned out to be 1100 ± 48 µM. In the series with glucosamine-6-phosphate [3], the “self-cleavage kobs at 2500 uM GlcN6P” value came out at 7.62e-05 ± 2.5e-05 s⁻¹. Also, the “self-cleavage kobs at 10000 uM GlcN6P” value in the series with glucosamine-6-phosphate [4] was found to be 9.73e-05 ± 2e-05 s⁻¹.
Turning to U49C A53U, the kcat with glucosamine-6-phosphate [1] was under 1e-05 s⁻¹.
As to C8A G29U U57A G62C C67U, the “self-cleavage kobs at 40 uM GlcN6P” value with glucosamine-6-phosphate [5] is under 1e-05 s⁻¹.
In the case of G40C G51A, the “self-cleavage kobs at 40 uM GlcN6P” value with glucosamine-6-phosphate [5] is under 1e-05 s⁻¹. Also, in the series with glucosamine-6-phosphate [2], the “self-cleavage kobs at 640 uM GlcN6P” value was under 1e-05 s⁻¹. In addition, the “self-cleavage kobs at 2500 uM GlcN6P” value with glucosamine-6-phosphate [3] is under 1e-05 s⁻¹. The “self-cleavage kobs at 10000 uM GlcN6P” value with glucosamine-6-phosphate [4] was under 1e-05 s⁻¹.
Consider G7A C11G U69A, for which the “self-cleavage kobs at 40 uM GlcN6P” value in the series with glucosamine-6-phosphate [5] is 0.000101 ± 2.8e-05 s⁻¹.
With G7C U47C A64U, the “self-cleavage kobs at 40 uM GlcN6P” value with glucosamine-6-phosphate [5] was under 1e-05 s⁻¹. For the same variant, the “self-cleavage kobs at 10000 uM GlcN6P” value with glucosamine-6-phosphate [4] is under 1e-05 s⁻¹.
Turning to A6U G32C, the “self-cleavage kobs at 40 uM GlcN6P” value with glucosamine-6-phosphate [5] is under 1e-05 s⁻¹. For the same variant, the “self-cleavage kobs at 160 uM GlcN6P” value with glucosamine-6-phosphate [7] is under 1e-05 s⁻¹. Further, in the series with glucosamine-6-phosphate [2], the “self-cleavage kobs at 640 uM GlcN6P” value is under 1e-05 s⁻¹. Also, the “self-cleavage kobs at 2500 uM GlcN6P” value in the series with glucosamine-6-phosphate [3] is under 1e-05 s⁻¹.
In the case of A14G G32C U49A, in the series with glucosamine-6-phosphate [5], the “self-cleavage kobs at 40 uM GlcN6P” value was under 1e-05 s⁻¹. Further, in the series with glucosamine-6-phosphate [4], the “self-cleavage kobs at 10000 uM GlcN6P” value was under 1e-05 s⁻¹.
Regarding A14C U30A, the kcat in the series with glucosamine-6-phosphate [1] was found to be 0.00104 ± 0.00011 s⁻¹. Besides, the Michaelis constant (KM) with glucosamine-6-phosphate [6] was determined as 2710 ± 480 µM. Moreover, the “self-cleavage kobs at 160 uM GlcN6P” value with glucosamine-6-phosphate [7] was determined as 6.84e-05 ± 2e-05 s⁻¹. Moreover, the “self-cleavage kobs at 640 uM GlcN6P” value with glucosamine-6-phosphate [2] amounted to 0.000182 ± 3.9e-05 s⁻¹. In the series with glucosamine-6-phosphate [3], the “self-cleavage kobs at 2500 uM GlcN6P” value was determined as 0.000568 ± 0.00017 s⁻¹. In addition, the “self-cleavage kobs at 10000 uM GlcN6P” value with glucosamine-6-phosphate [4] is 0.000813 ± 0.00013 s⁻¹.
In the case of G9U C58A, in the series with glucosamine-6-phosphate [5], the “self-cleavage kobs at 40 uM GlcN6P” value is under 1e-05 s⁻¹. Further, in the series with glucosamine-6-phosphate [4], the “self-cleavage kobs at 10000 uM GlcN6P” value is under 1e-05 s⁻¹.
Consider C10U U57G, for which the “self-cleavage kobs at 40 uM GlcN6P” value with glucosamine-6-phosphate [5] is under 1e-05 s⁻¹.
On to G41U G66A, for which the kcat in the series with glucosamine-6-phosphate [1] was determined as 0.00293 ± 0.00055 s⁻¹. Moreover, in the series with glucosamine-6-phosphate [6], the KM was determined as 1820 ± 560 µM. In the series with glucosamine-6-phosphate [5], the “self-cleavage kobs at 40 uM GlcN6P” value turned out to be 7.21e-05 ± 1.7e-05 s⁻¹. In addition, the “self-cleavage kobs at 160 uM GlcN6P” value with glucosamine-6-phosphate [7] was determined as 0.000253 ± 7.9e-05 s⁻¹. The “self-cleavage kobs at 640 uM GlcN6P” value with glucosamine-6-phosphate [2] was determined as 0.000701 ± 0.00023 s⁻¹. The “self-cleavage kobs at 2500 uM GlcN6P” value with glucosamine-6-phosphate [3] was found to be 0.00141 ± 0.00028 s⁻¹. Moreover, the “self-cleavage kobs at 10000 uM GlcN6P” value with glucosamine-6-phosphate [4] is 0.00299 ± 0.00054 s⁻¹.
Consider A36C G37A, for which the “self-cleavage kobs at 40 uM GlcN6P” value in the series with glucosamine-6-phosphate [5] is under 1e-05 s⁻¹. In addition, the “self-cleavage kobs at 10000 uM GlcN6P” value with glucosamine-6-phosphate [4] is under 1e-05 s⁻¹.
Turning to C16A C58A, the kcat in the series with glucosamine-6-phosphate [1] was 0.000107 ± 7.2e-06 s⁻¹. In the series with glucosamine-6-phosphate [6], the KM is 1510 ± 430 µM. The “self-cleavage kobs at 2500 uM GlcN6P” value with glucosamine-6-phosphate [3] stood at 7.24e-05 ± 1.4e-05 s⁻¹. In addition, the “self-cleavage kobs at 10000 uM GlcN6P” value with glucosamine-6-phosphate [4] turned out to be 9.21e-05 ± 1.1e-05 s⁻¹.
Regarding A6U C11G, the KM with glucosamine-6-phosphate [6] stood at 1370 ± 460 µM.
Regarding G32C G37C A48U G59C, in the series with glucosamine-6-phosphate [5], the “self-cleavage kobs at 40 uM GlcN6P” value is under 1e-05 s⁻¹.
Turning to G59A G66A, the kcat with glucosamine-6-phosphate [1] is 0.000247 ± 1.9e-05 s⁻¹.
Regarding C16U U55G C68U, in the series with glucosamine-6-phosphate [6], the KM was found to be 507 ± 230 µM. In addition, the “self-cleavage kobs at 40 uM GlcN6P” value with glucosamine-6-phosphate [5] was determined as 0.000134 ± 2.4e-05 s⁻¹. In addition, the “self-cleavage kobs at 160 uM GlcN6P” value with glucosamine-6-phosphate [7] was 0.000342 ± 0.00016 s⁻¹. Besides, the “self-cleavage kobs at 640 uM GlcN6P” value with glucosamine-6-phosphate [2] amounted to 0.00106 ± 0.0003 s⁻¹. In addition, in the series with glucosamine-6-phosphate [3], the “self-cleavage kobs at 2500 uM GlcN6P” value amounted to 0.00118 ± 0.00028 s⁻¹. For the same variant, in the series with glucosamine-6-phosphate [4], the “self-cleavage kobs at 10000 uM GlcN6P” value is 0.00354 ± 0.00087 s⁻¹.
